# According to US20230192839A1 (published 2023):
# Residue numbers refer to the chain shown, from its start.
# B1: P15_F02 scFv-Fc fusion (scFv, V domains shown)
# VH: QVQLVESGGGLVQAGGSLRLSCAASRRSSRSWAMHWVRQAPGKGLEWVAVISYDGRLKYYADSVKGRFTISRDNAEYLVYLQMNSLRAEDTAVYYCAAARDVDGSGYDTIDVWGQGTLVTVSS
# VL: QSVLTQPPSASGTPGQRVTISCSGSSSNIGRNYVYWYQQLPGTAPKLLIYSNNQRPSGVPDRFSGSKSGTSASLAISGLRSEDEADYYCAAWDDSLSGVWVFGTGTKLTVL
# notes: Tested as scFv-Fc fusion
# B2: P14_E03 scFv-Fc fusion (scFv, V domains shown)
# VH: QVQLVESGGGLVQAGGSLRLSCAASRRSSRSWAMHWVRQAPGKGLEWVAVISYDGRLKYYADSVKGRFTISRDNAEYLVYLQMNSLRAEDTAVYYCAAAPRVDWSDVSSGIDYWGQGTLVTVSS
# VL: QSVLTQPPSASGTPGQRVTISCSGSISNIGTNNVYWYQQLPGTAPKLLIYRNNQRPSGVPDRFSGSKSGTSASLAISGLRSEDEADYYCSAWDDSLSGVVFGTGTKLTVL
# notes: Tested as scFv-Fc fusion
# B3: P08_D06 scFv-Fc fusion (scFv, V domains shown)
# VH: QVQLVESGGGLVQAGGSLRLSCAASRRSSRSWAMHWVRQAPGKGLEWVAVISYDGRLKYYADSVKGRFTISRDNAEYLVYLQMNSLRAEDTAVYYCAADDDGDVYAGYSYGGFDYWGQGTLVTVSS
# VL: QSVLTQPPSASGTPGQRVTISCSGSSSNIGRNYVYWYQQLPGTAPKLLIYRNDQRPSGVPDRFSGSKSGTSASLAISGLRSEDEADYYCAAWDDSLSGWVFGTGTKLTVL
# notes: Tested as scFv-Fc fusion
# B4: P05_A11 scFv-Fc fusion (scFv, V domains shown)
# VH: B3 VH with D99S, G102A, V104I, Y105F, A106D, G107D, G112A, F113M
# VL: QSVLTQPPSASGTPGQRVTISCSGSSSNIGRNYVYWYQQLPGTAPKLLIYMTSQRPSGVPDRFSGSKSGTSASLAISGLRSEDEADYYCASWDDNLRAWVFGTGTKLTVL
# notes: Tested as scFv-Fc fusion
# B5: P01_B06 scFv-Fc fusion (scFv, V domains shown)
# VH: QVQLVESGGGLVQAGGSLRLSCAASRRSSRSWAMHWVRQAPGKGLEWVAVISYDGRLKYYADSVKGRFTISRDNAEYLVYLQMNSLRAEDTAVYYCAADTSMFASYDPMDVWGQGTLVTVSS
# VL: B4 VL with Y35N, M51R, T52D, S53D, Q54H, N95T, R97S, A98G
# notes: Tested as scFv-Fc fusion
# B6: P08_E05 scFv-Fc fusion (scFv, V domains shown)
# VH: QVQLVESGGGLVQAGGSLRLSCAASRRSSRSWAMHWVRQAPGKGLEWVAVISYDGRLKYYADSVKGRFTISRDNAEYLVYLQMNSLRAEDTAVYYCAADGKGAAWSEVDEPDVWGQGTLVTVSS
# VL: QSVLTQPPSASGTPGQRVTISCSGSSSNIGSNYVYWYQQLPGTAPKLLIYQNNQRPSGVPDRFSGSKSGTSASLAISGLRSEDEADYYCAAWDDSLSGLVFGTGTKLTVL
# notes: Tested as scFv-Fc fusion
# B7: P01_F02 scFv-Fc fusion (scFv, V domains shown)
# VH: QVQLVESGGGLVQAGGSLRLSCAASRRSSRSWAMHWVRQAPGKGLEWVAVISYDGRLKYYADSVKGRFTISRDNAEYLVYLQMNSLRAEDTAVYYCAADVESALAYGEPYHHMDVWGQGTLVTVSS
# VL: B4 VL with M51R, S91T, N95S, R97S, A98G
# notes: Tested as scFv-Fc fusion
# B8: P07_H08 scFv-Fc fusion (scFv, V domains shown)
# VH: QVQLVESGGGLVQAGGSLRLSCAASRRSSRSWAMHWVRQAPGKGLEWVAVISYDGRLKYYADSVKGRFTISRDNAEYLVYLQMNSLRAEDTAVYYCAAGFDWGWDSSDIYSAMDYWGQGTLVTVSS
# VL: DIQMTQSPSSLSASVGDRVTITCRASQNIGRYLHWYQQKPGKAPKLLIYSASNLQSGVPSRFSGSGSGTDFTLTISSLQPEDFATYYCQQSYSSPFTFGQGTKVEIK
# notes: Tested as scFv-Fc fusion
# B9: P01_A09 scFv-Fc fusion (scFv, V domains shown)
# VH: QVQLVESGGGLVQAGGSLRLSCAASRRSSRSWAMHWVRQAPGKGLEWVAVISYDGRLKYYADSVKGRFTISRDNAEYLVYLQMNSLRAEDTAVYYCAAERPTSDGSTGGMDVWGQGTLVTVSS
# VL: DIQMTQSPSSLSASVGDRVTITCRASQSISSYLNWYQQKPGKAPKLLIYGASTLQSGVPSRFSGSGSGTDFTLTISSLQPEDFATYYCQQSYSSGTFGQGTKVEIK
# notes: Tested as scFv-Fc fusion
# B10: P02_H01 scFv-Fc fusion (scFv, V domains shown)
# VH: QVQLVESGGGLVQAGGSLRLSCAASRRSSRSWAMHWVRQAPGKGLEWVAVISYDGRLKYYADSVKGRFTISRDNAEYLVYLQMNSLRAEDTAVYYCAAGSGGGDGLDVWGQGTLVTVSS
# VL: B9 VL with S28T, G50S, A51S, S56G
# notes: Tested as scFv-Fc fusion
# B11: P02_E11 scFv-Fc fusion (scFv, V domains shown)
# VH: B10 VH with G99E, S100A, G101S, G102T, G103D, D104N, V108Y
# VL: B9 VL with S28T, S31R, Y32H, G50S, T53S, Q55A, Y92H, S94A
# notes: Tested as scFv-Fc fusion
# B12: P03_A01 scFv-Fc fusion (scFv, V domains shown)
# VH: QVQLVESGGGLVQAGGSLRLSCAASRRSSRSWAMHWVRQAPGKGLEWVAVISYDGRLKYYADSVKGRFTISRDNAEYLVYLQMNSLRAEDTAVYYCAAETGSVGLDYWGQGTLVTVSS
# VL: B9 VL with S28G, S31T, S52T, T53S, Q55E, S91G, S94Q
# notes: Tested as scFv-Fc fusion
# Target: T1, human epidermal growth factor receptor antigen (human, UniProt P00533 25-645, limits assumed)
# T1 construct: whole entry named; also called EGFR
# Assay: SPR (Biacore T200), 37 C, scFv-Fc, 10 uM MTX
# Procedure: (§1) All binding kinetics analysis was performed on label-free Biacore surface plasmon biosensors (Biacore T200™ from GE Life Sciences) at 37° C. in 10 mM Hepes pH 7.4, 150 mM NaCl, 0.05% Tween-20 (HBST+), with or without 10 µM MTX. The Biacore data were processed in Biacore T200 Evaluation Software, and the data were double-referenced (Myszka, 1999, J Mol Recognit 12(5):279-284) and fit globally to a simple Langmuir with mass transport model to determine the equilibrium dissociation constant, KD, from the ratio of the kinetic rate constants (KD = koff/kₒₙ). In some cases the binding of antigen was very low (or not detectable) in the presence of 10 µM MTX and as a result kinetic rate constants could not be accurately determined. In these cases, a KD (or KD limit) was estimated based on the binding response at the highest analyte concentration tested or based on the typical limit of detection for a Biacore T200.
# (§2) The first 4 rounds of panning used biotinylated EGFR antigen captured on streptavidin or neutravidin coated 96-well plates. […] 1536 clones were randomly chosen from the 4th and 5th round of panning against the EGFR antigen and their binding specificity determined by phage ELISA.
# (§3) “*”: For interactions where kₒₙ and koff are reported, the KD was calculated using koff/kₒₙ.
Kd [nM],koff [s⁻¹],kon [M⁻¹ s⁻¹],Binder
2530,0.13,50000,B1
25,0.00072,29000,B2
1390,0.033,24000,B3
580,0.05,87000,B4
256,0.026,100000,B5
480,0.073,150000,B6

# Target: T1, human epidermal growth factor receptor …
# Assay: SPR (Biacore T200), 37 C; KD at 10 uM MTX / KD at 0 uM MTX
# Procedure: as §1, §2
row,Ratio: KD with MTX / KD without MTX,Binder
1,9.5,B1
2,3.9,B2
3,> 50,B7
4,7.5,B3
5,2.5,B4
6,> 11,B8
7,1.1,B5
8,1.3,B6

# Target: T2, human CD33 antigen (human, UniProt P20138 18-259, limits assumed)
# T2 construct: whole entry named; also called Siglec-3
# Assay: SPR (Biacore T200), 37 C, scFv-Fc, 0 uM MTX
# Procedure: as §1
# T2 sequence (P20138 18-259 limits assumed): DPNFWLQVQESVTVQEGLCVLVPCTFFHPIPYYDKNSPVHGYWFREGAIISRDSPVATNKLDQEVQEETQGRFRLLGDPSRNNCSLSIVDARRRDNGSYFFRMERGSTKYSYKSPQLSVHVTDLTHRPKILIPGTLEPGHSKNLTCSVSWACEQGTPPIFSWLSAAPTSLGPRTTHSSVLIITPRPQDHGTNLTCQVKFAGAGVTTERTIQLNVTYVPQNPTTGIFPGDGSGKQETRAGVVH
Kd [nM],koff [s⁻¹],kon [M⁻¹ s⁻¹],Binder
154,0.017,110000,B9
1320,0.037,28000,B10
66,0.0038,58000,B11
115,0.0057,50000,B12

# Target: T2, human CD33 antigen
# Assay: SPR (Biacore T200), 37 C; KD at 10 uM MTX / KD at 0 uM MTX
# Procedure: as §1
row,Ratio: KD with MTX / KD without MTX,Binder
1,8.5,B9
2,3.3,B10
3,221,B11
4,37,B12

# Target: T2, human CD33 antigen
# Assay: SPR (Biacore T200), 37 C, scFv-Fc, 10 uM MTX; KD estimated, rate constants not determined
# Procedure: as §1, §3
row,Kd [µM],Binder
1,1.3,B9
2,4.34,B10
3,14.6,B11
4,4.27,B12

# Target: T1, human epidermal growth factor receptor …
# Assay: SPR (Biacore T200), 37 C, scFv-Fc, 0 uM MTX
# Procedure: as §1, §2
Kd [nM],koff [s⁻¹],kon [M⁻¹ s⁻¹],Binder
266,0.022,82000,B1
6.3,0.00067,110000,B2
188,0.011,61000,B7
185,0.013,71000,B3
235,0.028,120000,B4
823,0.27,330000,B8
230,0.024,100000,B5
360,0.071,200000,B6
